In patent US20230050148A1 (SCHOLAR ROCK, published 2023):

T1: Cyno (cynomolgus monkey)
T1 chain: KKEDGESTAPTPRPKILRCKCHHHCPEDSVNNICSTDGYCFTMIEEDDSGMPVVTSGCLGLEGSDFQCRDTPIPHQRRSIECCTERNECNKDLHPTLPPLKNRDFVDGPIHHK


Columns and labels:
[1] = molecular target: hLTBP3-proTGFβ1 in the cell-based potency assay (human, UniProt P01137 30-390; Q9NS15 44-1303); assay: cell-based or functional assay
[2] = molecular target: hLTBP1-proTGFβ1 in the cell-based potency assay (human, UniProt P01137 30-390; Q14766 347-1721); assay: cell-based or functional assay
Chain of hLTBP1-proTGFβ1 in the cell-based potency assay (P01137 30-390 limits assumed, chain 1 of 2): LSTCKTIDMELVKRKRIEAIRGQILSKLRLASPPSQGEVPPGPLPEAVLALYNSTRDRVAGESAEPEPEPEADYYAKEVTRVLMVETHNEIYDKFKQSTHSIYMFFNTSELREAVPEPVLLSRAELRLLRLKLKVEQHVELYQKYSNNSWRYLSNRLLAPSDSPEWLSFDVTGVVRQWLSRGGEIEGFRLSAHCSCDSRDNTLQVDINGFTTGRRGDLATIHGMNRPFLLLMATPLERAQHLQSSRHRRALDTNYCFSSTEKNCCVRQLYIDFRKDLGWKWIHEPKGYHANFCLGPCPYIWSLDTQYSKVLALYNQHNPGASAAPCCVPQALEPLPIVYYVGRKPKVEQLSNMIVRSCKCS
Chain of hLTBP1-proTGFβ1 in the cell-based potency assay (Q14766 347-1721 limits assumed, chain 2 of 2): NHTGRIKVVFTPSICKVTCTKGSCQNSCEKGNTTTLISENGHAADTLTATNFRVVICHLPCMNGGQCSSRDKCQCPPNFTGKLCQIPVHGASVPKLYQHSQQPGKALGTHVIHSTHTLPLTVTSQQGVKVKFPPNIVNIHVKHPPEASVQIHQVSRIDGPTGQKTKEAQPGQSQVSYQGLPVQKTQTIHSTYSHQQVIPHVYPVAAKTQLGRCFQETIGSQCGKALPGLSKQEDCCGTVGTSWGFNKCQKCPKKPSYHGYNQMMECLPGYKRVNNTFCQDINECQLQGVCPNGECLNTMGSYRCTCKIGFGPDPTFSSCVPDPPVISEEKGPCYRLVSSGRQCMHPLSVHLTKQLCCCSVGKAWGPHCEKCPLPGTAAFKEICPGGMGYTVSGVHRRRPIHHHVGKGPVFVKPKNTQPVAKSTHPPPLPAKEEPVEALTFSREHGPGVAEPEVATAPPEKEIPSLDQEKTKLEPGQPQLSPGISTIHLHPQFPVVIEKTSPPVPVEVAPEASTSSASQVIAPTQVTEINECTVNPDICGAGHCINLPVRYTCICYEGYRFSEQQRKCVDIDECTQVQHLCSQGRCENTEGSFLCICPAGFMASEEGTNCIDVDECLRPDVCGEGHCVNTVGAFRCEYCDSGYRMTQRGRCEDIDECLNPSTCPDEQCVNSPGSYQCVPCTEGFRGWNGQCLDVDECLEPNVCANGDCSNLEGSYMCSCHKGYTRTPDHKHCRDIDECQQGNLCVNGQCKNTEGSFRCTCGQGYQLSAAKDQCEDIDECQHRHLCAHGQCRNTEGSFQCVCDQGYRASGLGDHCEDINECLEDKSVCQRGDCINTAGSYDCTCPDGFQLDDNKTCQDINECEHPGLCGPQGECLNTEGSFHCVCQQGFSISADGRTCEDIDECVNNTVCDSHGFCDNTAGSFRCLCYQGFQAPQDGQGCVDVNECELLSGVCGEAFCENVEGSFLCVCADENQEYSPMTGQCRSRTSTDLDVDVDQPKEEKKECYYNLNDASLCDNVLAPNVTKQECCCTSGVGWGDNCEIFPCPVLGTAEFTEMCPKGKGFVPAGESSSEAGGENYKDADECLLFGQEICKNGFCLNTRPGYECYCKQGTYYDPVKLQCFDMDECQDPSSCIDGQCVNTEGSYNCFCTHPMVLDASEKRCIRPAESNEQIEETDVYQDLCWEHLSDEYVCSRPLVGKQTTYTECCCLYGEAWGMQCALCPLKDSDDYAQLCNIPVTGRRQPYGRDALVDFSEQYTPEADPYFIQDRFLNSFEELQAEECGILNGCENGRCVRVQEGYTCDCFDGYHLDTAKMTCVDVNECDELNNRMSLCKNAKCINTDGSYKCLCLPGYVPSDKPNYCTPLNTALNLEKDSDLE

[3] = molecular target: hGARP-proTGFβ1 in the cell-based potency assay (human, UniProt P01137 30-390; Q14392 20-662); assay: cell-based or functional assay
[4] = molecular target: T2, recombinant human LRRC33-proTGFβ1 complex (human, UniProt P01137 30-390; Q86YC3 19-650); assay: SPR (Biacore 8K), biotinylated antigen on Biotin CAP chip, Fab 0.62-10 nM, 1:1 fit
T2 construct: C-terminally His-tagged LRRC33 ectodomain (sLRRC33); also called hLRRC33-proTGFβ1; hLRRC33

[5] = molecular target: T3, recombinant human LTBP3-proTGFβ1 complex (human, UniProt Q9NS15 866-1039); assay: as above
T3 construct: range 866-1039; Purified large latent complex; also called hLTBP3-proTGFβ1; hLTBP3
T3 sequence (chain, as listed by the source limits assumed, chain 1 of 2): as the sequence (P01137 30-390 limits assumed, chain 1 of 2) above
T3 sequence (Q9NS15 866-1039 limits assumed, chain 2 of 2): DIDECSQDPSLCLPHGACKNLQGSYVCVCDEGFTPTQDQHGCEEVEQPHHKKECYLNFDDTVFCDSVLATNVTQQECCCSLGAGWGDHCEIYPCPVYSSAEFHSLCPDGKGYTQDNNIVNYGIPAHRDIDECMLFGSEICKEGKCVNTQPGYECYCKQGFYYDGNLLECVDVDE

[6] = molecular target: T4, recombinant human LTBP1-proTGFβ1 complex (human, UniProt Q14766 873-1507); assay: as above
T4 construct: range 873-1507; Purified large latent complex (proTGFβ1 dimer disulfide-linked to one presenting molecule); biotinylated in BLI, MSD-SET and SPR assays; also called hLTBP1-proTGFβ1; hLTBP1

[7] = molecular target: T5, recombinant human GARP-proTGFβ1 complex (human, UniProt P01137 30-390; Q14392 20-627); assay: as above
T5 construct: C-terminally His-tagged GARP ectodomain (sGARP) in complex with latent TGFβ1; also called hGARP-proTGFβ1; hGARP
T5 sequence (P01137 30-390, chain 1 of 2): as the sequence (P01137 30-390 limits assumed, chain 1 of 2) above
T5 sequence (Q14392 20-627, chain 2 of 2): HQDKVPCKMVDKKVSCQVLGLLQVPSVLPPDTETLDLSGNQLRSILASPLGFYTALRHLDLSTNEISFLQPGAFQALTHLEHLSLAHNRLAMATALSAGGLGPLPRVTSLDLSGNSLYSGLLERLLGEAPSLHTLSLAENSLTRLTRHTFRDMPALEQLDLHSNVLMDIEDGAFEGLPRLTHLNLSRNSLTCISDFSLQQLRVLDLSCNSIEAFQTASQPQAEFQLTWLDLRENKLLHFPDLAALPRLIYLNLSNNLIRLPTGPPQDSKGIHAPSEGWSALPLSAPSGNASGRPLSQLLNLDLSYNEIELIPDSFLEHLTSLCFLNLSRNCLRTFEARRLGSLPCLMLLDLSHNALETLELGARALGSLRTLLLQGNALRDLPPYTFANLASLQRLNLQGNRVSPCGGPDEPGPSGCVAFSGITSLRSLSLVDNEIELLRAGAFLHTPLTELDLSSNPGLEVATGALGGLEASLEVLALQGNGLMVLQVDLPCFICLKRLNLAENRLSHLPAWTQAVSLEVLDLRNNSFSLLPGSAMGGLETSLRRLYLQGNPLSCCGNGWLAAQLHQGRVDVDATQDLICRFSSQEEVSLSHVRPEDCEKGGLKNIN

[8] = molecular target: hLRRC33-proTGFβ1 in the cell-based potency assay (human, UniProt P01137 30-390; Q86YC3 19-651); assay: cell-based or functional assay
LTBP:proTGFβ1 = LTBP:proTGFβ1 (human); assay: cell-based or functional assay
Cyno = molecular target: T1, Cyno; assay: cell-based or functional assay
Rat = Rat (rat); assay: cell-based or functional assay
Human = Human (human); assay: cell-based or functional assay

Chain of hLTBP3-proTGFβ1 in the cell-based potency assay (P01137 30-390 limits assumed, chain 1 of 2): as the sequence (P01137 30-390 limits assumed, chain 1 of 2) above
Chain of hLTBP3-proTGFβ1 in the cell-based potency assay (Q9NS15 44-1303 limits assumed, chain 2 of 2): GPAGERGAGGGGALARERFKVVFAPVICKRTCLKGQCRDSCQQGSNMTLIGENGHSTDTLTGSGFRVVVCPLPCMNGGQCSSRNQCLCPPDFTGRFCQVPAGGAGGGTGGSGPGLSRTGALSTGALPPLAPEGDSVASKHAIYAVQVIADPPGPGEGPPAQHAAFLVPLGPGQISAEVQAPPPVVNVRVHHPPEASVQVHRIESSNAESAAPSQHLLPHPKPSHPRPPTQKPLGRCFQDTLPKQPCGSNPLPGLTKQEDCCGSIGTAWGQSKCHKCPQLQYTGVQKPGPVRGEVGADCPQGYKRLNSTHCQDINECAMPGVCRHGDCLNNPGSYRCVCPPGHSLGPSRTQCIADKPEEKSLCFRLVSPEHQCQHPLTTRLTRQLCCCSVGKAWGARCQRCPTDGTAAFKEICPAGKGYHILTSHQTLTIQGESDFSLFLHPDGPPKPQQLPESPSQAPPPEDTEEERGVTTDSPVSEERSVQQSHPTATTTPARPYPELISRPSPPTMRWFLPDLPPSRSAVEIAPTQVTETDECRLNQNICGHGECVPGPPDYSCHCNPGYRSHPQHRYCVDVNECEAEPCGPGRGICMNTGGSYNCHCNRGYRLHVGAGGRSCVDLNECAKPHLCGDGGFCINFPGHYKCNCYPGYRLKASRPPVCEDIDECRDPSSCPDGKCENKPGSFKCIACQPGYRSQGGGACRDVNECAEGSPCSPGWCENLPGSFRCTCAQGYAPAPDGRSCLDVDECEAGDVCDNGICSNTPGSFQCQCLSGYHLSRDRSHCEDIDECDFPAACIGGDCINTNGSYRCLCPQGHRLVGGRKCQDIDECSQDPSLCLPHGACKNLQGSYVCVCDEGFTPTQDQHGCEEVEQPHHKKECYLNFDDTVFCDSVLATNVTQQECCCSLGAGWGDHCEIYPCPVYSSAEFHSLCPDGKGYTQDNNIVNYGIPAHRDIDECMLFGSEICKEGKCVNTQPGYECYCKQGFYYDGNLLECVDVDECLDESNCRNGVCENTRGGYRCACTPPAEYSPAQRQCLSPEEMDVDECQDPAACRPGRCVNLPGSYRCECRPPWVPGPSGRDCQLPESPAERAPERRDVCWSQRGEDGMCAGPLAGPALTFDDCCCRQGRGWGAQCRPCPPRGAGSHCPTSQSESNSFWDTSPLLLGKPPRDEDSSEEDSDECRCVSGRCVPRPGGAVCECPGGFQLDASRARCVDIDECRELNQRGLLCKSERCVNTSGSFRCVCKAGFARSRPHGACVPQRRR

Binder | IC50, reporter cell assay of TGFβ1 activation [1] | IC50, reporter cell assay of TGFβ1 activation [2] | IC50, reporter cell assay of TGFβ1 activation [3] | IC50, reporter cell assay of TGFβ1 activation [8] | also measured
Ab4 (antibody, V domains shown) VH: EVQLVESGGGLVQPGGSLRLSCAASGFTFSSYSMNWVRQAPGKGLEWVSYISSSSSTIYYADSVKGRFTISRDNAKNSLYLQMNSLRAEDTAVYYCARGVLDYGDMLDPWGQGTLVTVSS VL: DIQMTQSPSSLSASVGDRVTITCQASQDITNYLNWYQQKPGKAPKLLIYDASNLETGVPSRFSGSGSGTDFTFTISSLQPEDIATYYCQQADNHPPWTFGGGTKVEIK | 5.6 nM | 5.2 nM | 0.8 nM |  | 
Ab6 Fab (Fab, V domains shown, also called Fab fragment of Ab6) VH: EVQLVESGGGLVQPGGSLRLSCTASGFTFSSFSMDWVRQAPGKGLEWVSYISPSADTIYYADSVKGRFTISRDNAKNTLYLQMNSLRAEDTAVYYCARGVLDYGDMLMPWGQGTLVTVSS VL: DIQMTQSPSSLSASVGDRVTITCQASQDITNYLNWYQQKPGKAPKLLIYDASNLETGVPSRFSGSGSGTDFTFTISSLQPEDIATYYCQQADNHPPWTFGGGTKVEIK |  |  |  |  | Kd [4]: 0.145 nM; koff [4]: 0.000123 s⁻¹; kon [4]: 845000 M⁻¹ s⁻¹; Kd [5]: 0.488 nM; koff [5]: 0.000831 s⁻¹; kon [5]: 1.7e+06 M⁻¹ s⁻¹; Kd [6]: 0.124 nM; koff [6]: 0.000255 s⁻¹; kon [6]: 2.05e+06 M⁻¹ s⁻¹; Kd [7]: 0.104 nM; koff [7]: 0.000218 s⁻¹; kon [7]: 2.1e+06 M⁻¹ s⁻¹
Ab21 (antibody, V domains shown) VH: EVQLVESGGGLVQPGGSLRLSCAASGFTFSSFSMDWVRQAPGKGLEWVSYISPDASTIYYADSVKGRFTISRDNAKNSLYLQMNSLRAEDTAVYYCARGVLDYGDMLDPWGQGTLVTVSS VL: DIQMTQSPSSLSASVGDRVTITCQASQDITNYLNWYQQKPGKAPKLLIYDASNLETGVPSRFSGSGSGTDFTFTISSLQPEDIATYYCQQADNHPPWTFGGGTKVEIK | 0.8 nM | 1.6 nM | 0.4 nM | 0.6 nM | 
Ab23 (antibody, V domains shown) VH: EVQLVESGGGLVQPGGSLRLSCAASGFTFSSFSMNWVRQAPGKGLEWVSYISPSADTIYYADSVKGRFTISRDNAKNTLYLQMNSLRAEDTAVYYCARGVLDYGDMLDPWGQGTLVTVSS VL: DIQMTQSPSSLSASVGDRVTITCQASQDITNYLNWYQQKPGKAPKLLIYDASNLETGVPSRFSGSGSGTDFTFTISSLQPEDIATYYCQQADNHPPWTFGGGTKVEIK | 0.9 nM | 0.8 nM | 0.3 nM | 0.6 nM | 
Ab25 (antibody, V domains shown) VH: EVQLVESGGGLVQPGGSLRLSCAASGFTFGSFSMDWVRQAPGKGLEWVSYISPDASTIYYADSVKGRFTISRDNAKNSLYLQMNSLRAEDTAVYYCARGVLDYGDMLDPWGQGTLVTVSS VL: DIQMTQSPSSLSASVGDRVTITCQASQDITNYLNWYQQKPGKAPKLLIYDASNLETGVPSRFSGSGSGTDFTFTISSLQPEDIATYYCQQADNHPPWTFGGGTKVEIK | 0.51 nM | 6.1 nM | 0.4 nM | 0.7 nM | 
Ab26 (antibody, V domains shown) VH: EVQLVESGGGLVQPGGSLRLSCAASGFTFSSFSMDWVRQAPGKGLEWVSYISPDASTIYYADSVKGRFTISRDNAKNTLYLQMNSLRAEDTAVYYCARGVLDYGDMLDPWGQGTLVTVSS VL: DIQMTQSPSSLSASVGDRVTITCQASQDITNYLNWYQQKPGKAPKLLIYDASNLETGVPSRFSGSGSGTDFTFTISSLQPEDIATYYCQQADNHPPWTFGGGTKVEIK | 0.7 nM | 0.7 nM | 0.3 nM | 0.3 nM | 
Ab29 (antibody, V domains shown) VH: EVQLVESGGGLVQPGRSLRLSCAASGFTFSSFAMNWVRQAPGKGLEWVSYISPDASTIYYAGSVKGRFTISRDNAKNSLYLQMNSLRAEDTAVYYCVRAVLDYGDMLDPWGQGTLVTVSS VL: DIQMTQSPSSLSASVGDRVTITCQASQDITNYLNWYQQKPGKAPKLLIYDASNLETGVPSRFSGSGSGTDFTFTISSLQPEDIATYYCQQADNHPPWTFGGGTKVEIK | 0.8 nM | 0.5 nM | 0.3 nM | 0.5 nM | 
Ab33 (antibody, V domains shown) VH: EVQLVESGGGLVQPGGSLRLSCAASGFTFSSFSMNWVRQAPGKGLEWVSYISPSADTIYYADSVKGRFTISRDNAKNTLYLQMNSLRAEDTAVYYCAHGVLDYGDMLDPWGQGTLVTVSS VL: DIQMTQSPSSLSASVGDRVTITCQASQDITNYLNWYQQKPGKAPKLLIYDASNLETGVPSRFSGSGSGTDFTFTISSLQPEDIATYYCQQADNHPPWTFGGGTKVEIK | 1.1 nM | 1.6 nM | 0.2 nM | 0.7 nM | 
Ab5 (antibody, V domains shown) VH: EVQLVESGGGLVQPGGSLRLSCAASGFTFSSFSMDWVRQAPGKGLEWVSYISPDASTIYYADSVKGRFTISRDNAKNSLYLQMNSLRAEDTAVYYCARGVLDYGDMLDPWGQGTLVTVSS VL: DIQMTQSPSSLSASVGDRVTITCQASQDITNYLNWYQQKPGKAPKLLIYDASNLETGVPSRFSGSGSGTDFTFTISSLQPEDIATYYCQQADNHPPWTFGGGTKVEIK |  | 1.3 nM | 0.1 nM | 0.6 nM | 
Ab6 (antibody, V domains shown) VH: EVQLVESGGGLVQPGGSLRLSCTASGFTFSSFSMDWVRQAPGKGLEWVSYISPSADTIYYADSVKGRFTISRDNAKNTLYLQMNSLRAEDTAVYYCARGVLDYGDMLMPWGQGTLVTVSS VL: DIQMTQSPSSLSASVGDRVTITCQASQDITNYLNWYQQKPGKAPKLLIYDASNLETGVPSRFSGSGSGTDFTFTISSLQPEDIATYYCQQADNHPPWTFGGGTKVEIKR |  |  |  |  | IC50 (read off the curve); percent TGFβ activity, LN229 / CAGA12 luciferase reporter co-culture (LTBP:proTGFβ1): ~1 nM; IC50 (inhibition of latent TGFβ1 activation, LN229 transfectants with CAGA12 reporter cells) (Cyno): 1.02 nM; IC50 (inhibition of latent TGFβ1 activation, LN229 transfectants with CAGA12 reporter cells) (Rat): 1.11 nM; IC50 (inhibition of latent TGFβ1 activation, LN229 transfectants with CAGA12 reporter cells) (Human): 1.07 nM
